Molecular target: T1, DnaA wild-type (Escherichia coli) (UniProt P03004)
T1 sequence: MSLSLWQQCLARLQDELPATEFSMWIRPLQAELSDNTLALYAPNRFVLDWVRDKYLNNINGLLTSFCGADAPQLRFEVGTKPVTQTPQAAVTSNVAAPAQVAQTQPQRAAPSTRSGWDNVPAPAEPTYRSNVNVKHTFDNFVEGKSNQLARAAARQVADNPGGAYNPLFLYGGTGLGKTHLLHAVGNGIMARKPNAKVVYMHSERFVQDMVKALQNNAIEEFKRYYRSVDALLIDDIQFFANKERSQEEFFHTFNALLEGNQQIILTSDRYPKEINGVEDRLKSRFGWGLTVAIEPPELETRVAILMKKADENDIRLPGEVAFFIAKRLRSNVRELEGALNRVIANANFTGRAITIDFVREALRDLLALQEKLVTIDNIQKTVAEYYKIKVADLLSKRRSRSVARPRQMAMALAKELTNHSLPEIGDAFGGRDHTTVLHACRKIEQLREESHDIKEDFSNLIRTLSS
Test: EMSA
Settings: EMSA oriC/PdnaA: 20 mM HEPES-KOH pH 8.0, 5 mM Mg acetate, 1 mM EDTA, 4 mM DTT, 0.2% Triton X-100, 5% glycerol, 0.5 mg/ml BSA, 2 mM ATP, 20 C; DARS1: 20 mM …

GGGGATAGGGGCTGGAGACAGTTATCCACTATTCCTGTGGATAACCATGTGTATTAGAGTTAGAAAACACGAGGCAAGCGAGAGAATACGCGGCTTGCACG (double strand) [DARS1]
binding: binds

— article PMC5397419
